Experimental findings from article PMC12009342 are described below.

pKd: −log10 of the molar value.

Assay [1] addresses HIV-1 Env antigen (BG505 SOSIP.664 gp140-his) (HIV-1 (BG505)) (UniProt Q2N0S6). Kind of assay: SEC-MALS; Fab/antigen mixtures; Fab and HIV Env trimer mixed 3:1, Fab and EGFR or Nkp30 mixed 1:1; Superdex 200 Increase 10/300 GL, PBS with 200 ppm sodium azide, 1 mL/min. (In general: Size exclusion chromatography separates by hydrodynamic size, large species first.)
The target is the same in assay [2]. The assay is described as follows: BLI; BLItz; His-tagged antigen captured on Anti-Penta-HIS (HIS1K) biosensor at 25 ng/µL for 300 s; Fab in solution at 4 concentrations; association 180 s, dissociation 300 s in PBS. A general note: BLI is a label-free optical method that tracks binding on a fibre tip over time.

As for “NC-Cow1 Fab ulCDR-swap variant var1 (ulCDR of NC-Cow2)”, in assay [1], the stoichiometry N – broadly, the number of molecules, sites or subunits per partner or assembly – amounted to 1. Also, in assay [2], the pKd (in general, the Kd on a negative log10 scale, so that one unit is a factor of ten) is 6.90.
